{
  "source": "patent US20260201058A1",
  "key": {"[1]": {"target": "human PD-L1 on GS-C2 cells (cells overexpressing human PD-L1, GenScript, M00613) (human) (UniProt Q9NZQ7)", "sequence (Q9NZQ7 19-290)": "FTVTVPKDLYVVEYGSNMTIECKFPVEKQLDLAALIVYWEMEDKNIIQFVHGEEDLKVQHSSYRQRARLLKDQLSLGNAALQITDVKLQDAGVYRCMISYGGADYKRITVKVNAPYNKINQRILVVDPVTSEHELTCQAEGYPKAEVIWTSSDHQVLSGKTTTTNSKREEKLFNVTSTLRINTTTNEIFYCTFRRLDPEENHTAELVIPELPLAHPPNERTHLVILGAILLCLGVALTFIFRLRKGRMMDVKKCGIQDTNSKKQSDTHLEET", "experiment": "flow cytometry on GS-C2 cells"}, "[2]": {"target": "human PD-L1 on GS-C2 cells (cells overexpressing human PD-L1, GenScript, M00613) (human) (UniProt Q9NZQ7)", "experiment": "cell-based or functional assay"}, "[3]": {"target": "monkey PD-L1 (Cyno-PD-L1) on cells (monkey (cyno))", "experiment": "flow cytometry on 293F-cyno PD-L1 cells"}},
  "data": [
    {"substance": "control antibody Benchmark-ATE (monoclonal antibody, Atezolizumab)", "values": [
      {"measurement": "EC50", "setting": "[1]", "result": 0.694, "unit": "nM"},
      {"measurement": "EC50 (nM), blocking of T cell PD-1/PD-L1 signaling pathway (GS-C2 cells with Jurket-NFAT-PD1 cells, luciferase)", "setting": "[2]", "result": 2.38, "unit": "nM"},
      {"measurement": "EC50", "setting": "[3]", "result": 1.34, "unit": "nM"}
    ]}
  ]
}
